Reference: US20130195871A1 (AbbVie / Abbott, published 2013)

Key:
EGFR on the cell surface = molecular target: T1, EGFR on the cell surface (human, UniProt P00533 25-1210); assay: flow cytometry on cells, 2 ug/mL, N-terminal VD;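 note: cells stained for 30 to 60 min on ice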
T1 construct: whole, on cells
Protocol: Stable cell lines overexpressing a cell-surface antigen of interest or human tumor cell lines were harvested from tissue culture flasks and resuspended in phosphate buffered saline (PBS) containing 5% fetal bovine serum (PBS/FBS). Prior to staining, human tumor cells were incubated on ice with (100 μl) human IgG at 5 μg/ml in PBS/FCS. 1-5×10⁵ cells were incubated with antibody or DVD-Ig (2 μg/mL) in PBS/FBS for 30-60 minutes on ice. […] After 30 minutes incubation on ice, cells were washed twice and resuspended in PBS/FBS. Fluorescence was measured using a Becton Dickinson FACSCalibur (Becton Dickinson, San Jose, Calif.).
The geometric mean is the n root of the multiplication product of n fluorescent signals (a1×a2×a3 . . . an). With log-transformed data the geometric mean is used to normalize the weighting of the data distribution.

[1] = molecular target: T2, Recombinant Human MSP Receptor ECD-His tag (human, UniProt Q04912 25-957); assay: SPR (Biacore), C-terminal VD;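 note: surface plasmon resonance with DVD-Ig proteins captured on an anti-IgG chip and recombinant antigen flowed over in HBS-EP buffer, Langmuir global fit, KD taken as koff/kon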
T2 construct: extracellular domain; bought reagent; also called RON

GEO MEAN (EGFR on the cell surface) | Binder | also measured
512 | DVD2304 (bispecific antibody, DVD-Ig, outer AB400 / inner AB075) VH: EVQLVESGGGLVQPGGSLRLSCAASGFSLTNYGVHWVRQAPGKGLEWLGVGWSGGNTDYNTPFTSRLTINKDNSKNTVYLQMNSLRAEDTAVYYCARALTWYDYEFAYWGQGTLVTVSSASTKGPEVQLVQSGAEVKKPGSSVKVSCKASGGTFSSYAISWVRQAPGQGLEWMGGIIPIFGTANYAQKFQGRVTITADKSTSTAYMELSSLRSEDTAVYYCARAPLRFLEWSTQDHYYYYYMDVWGKGTTVTVSS VL: DILLTQSPGTLSLSPGERATLSCRASQSIYTNIHWYQQKPGQAPRLLIKYASESISGIPDRFSGSGSGTDFTLTISRLEPEDFAVYYCQQNLNWPTTFGQGTKLEIKRTVAAPSSELTQDPAVSVALGQTVRITCQGDSLRSYYATWYQQKPGQAPILVIYGENKRPSGIPDRFSGSSSGNTASLTITGAQAEDEADYYCKSRDGSGQHLVFGGGTKLTVL | –
44.8 | DVD2342 (bispecific antibody) VH: QVQLQESGPGLVKPSQTLSLTCTVSGYSISSDFAWNWIRQPPGKGLEWMGYISYSGNTRYQPSLKSRITISRDTSKNQFFLKLNSVTAADTATYYCVTAGRGFPYWGQGTLVTVSSASTKGPEVQLVESGGGLVQPGGSLRLSCAASGFTFTDYTMDWVRQAPGKGLEWVADVNPNSGGSIYNQRFKGRFTLSVDRSKNTLYLQMNSLRAEDTAVYYCARNLGPSFYFDYWGQGTLVTVSS VL: DIQMTQSPSSMSVSVGDRVTITCHSSQDINSNIGWLQQKPGKSFKGLIYHGTNLDDGVPSRFSGSGSGTDYTLTISSLQPEDFATYYCVQYAQFPWTFGGGTKLEIKRTVAAPDIQMTQSPSSLSASVGDRVTITCKASQDVSIGVAWYQQKPGKAPKLLIYSASYRYTGVPSRFSGSGSGTDFTLTISSLQPEDFATYYCQQYYIYPYTFGQGTKVEIK | –
563 | DVD2302 (bispecific antibody, DVD-Ig, outer AB400 / inner AB080) VH: EVQLVESGGGLVQPGGSLRLSCAASGFSLTNYGVHWVRQAPGKGLEWLGVGWSGGNTDYNTPFTSRLTINKDNSKNTVYLQMNSLRAEDTAVYYCARALTWYDYEFAYWGQGTLVTVSSASTKGPEVQLVESGGGLVQPGGSLRLSCAASGFTFTDYTMDWVRQAPGKGLEWVADVNPNSGGSIYNQRFKGRFTLSVDRSKNTLYLQMNSLRAEDTAVYYCARNLGPSFYFDYWGQGTLVTVSS VL: DILLTQSPGTLSLSPGERATLSCRASQSIYTNIHWYQQKPGQAPRLLIKYASESISGIPDRFSGSGSGTDFTLTISRLEPEDFAVYYCQQNLNWPTTFGQGTKLEIKRTVAAPDIQMTQSPSSLSASVGDRVTITCKASQDVSIGVAWYQQKPGKAPKLLIYSASYRYTGVPSRFSGSGSGTDFTLTISSLQPEDFATYYCQQYYIYPYTFGQGTKVEIK | –
– | DVD2335 (bispecific antibody, DVD-Ig, outer AB062 / inner AB034) VH: QVQLQQWGAGLLKPSETLSLTCAVYGGSFSGYYWSWIRQPPGKGLEWIGEINHSGSTNYNPSLKSRVTISVETSKNQFSLKLSSVTAADTAVYYCARDKWTWYFDLWGRGTLVTVSSASTKGPQVQLQESGPGLVKPSEILSLTCTVSGGSISSHYWSWVRQPPGKGLEWIGYIYYSGSTNYNPSLKSRVTISVDTSKNQFSLNLSSVTAADTAVYYCARIPNYYDRSGYYPGYWYFDLWGRGTLVTVSS VL: DIEMTQSPDSLAVSLGERATINCRSSQSVLYSSSNRNYLAWYQQNPGQPPKLLIYWASTRESGVPDRFSGSGSGTDFTLTISSLQAEDVAVYYCQQYYSTPRTFGQGTKVEIKRTVAAPQAVLTQPSSLSAPPGASASLTCTLRSGFNVDSYRISWYQQKPGSPPQYLLRYKSDSDKQQGSGVPSRFSGSKDASANAGILLISGLQSEDEADYYCMIWHSSAWVFGGGTKLTVL | Kd [1]: 39 nM; koff [1]: 0.0051 s⁻¹; kon [1]: 130000 M⁻¹ s⁻¹
– | DVD2317 (bispecific antibody, DVD-Ig, outer AB080 / inner AB005) VH: EVQLVESGGGLVQPGGSLRLSCAASGFTFTDYTMDWVRQAPGKGLEWVADVNPNSGGSIYNQRFKGRFTLSVDRSKNTLYLQMNSLRAEDTAVYYCARNLGPSFYFDYWGQGTLVTVSSASTKGPEVQLVQSGGGLVKPGGSLRLSCAASGFTFSSYAMHWVRQAPGKGLEWVAVISYDGSNKYYADSVKGRFTISRDNSKNTLYLQMNSLRAEDTAVYYCARFSGWPNNYYYYGMDVWGQGTTVTVSS VL: DIQMTQSPSSLSASVGDRVTITCKASQDVSIGVAWYQQKPGKAPKLLIYSASYRYTGVPSRFSGSGSGTDFTLTISSLQPEDFATYYCQQYYIYPYTFGQGTKVEIKRTVAAPDVVMTQSPLSLPVTPGEPASISCRSSQSLLHSNGFNYVDWYLQKPGQSPHLLIYFGSYRASGVPDRFSGSGSGTDFTLKISRVEAEDVGVYYCMQALQTPPWTFGQGTKVEIR | binding result [1]: no binding (tested: 10-200 nM)
546 | DVD2306 (bispecific antibody, DVD-Ig, outer AB400 / inner AB077) VH: EVQLVESGGGLVQPGGSLRLSCAASGFSLTNYGVHWVRQAPGKGLEWLGVGWSGGNTDYNTPFTSRLTINKDNSKNTVYLQMNSLRAEDTAVYYCARALTWYDYEFAYWGQGTLVTVSSASTKGPEVQLVQSGGGLVKPGGSLRLSCAASGFTFSSFAMHWVRQAPGKGLEWISVIDTRGATYYADSVKGRFTISRDNAKNSLYLQMNSLRAEDTAVYYCARLGNFYYGMDVWGQGTTVTVSS VL: DILLTQSPGTLSLSPGERATLSCRASQSIYTNIHWYQQKPGQAPRLLIKYASESISGIPDRFSGSGSGTDFTLTISRLEPEDFAVYYCQQNLNWPTTFGQGTKLEIKRTVAAPEIVLTQSPGTLSVSPGERATLSCRASQSIGSSLHWYQQKPGQAPRLLIKYASQSLSGIPDRFSGSGSGTDFTLTISRLEPEDFAVYYCHQSSRLPHTFGQGTKVEIK | –
400 | DVD2298 (bispecific antibody, DVD-Ig, outer AB400 / inner AB005) VH: EVQLVESGGGLVQPGGSLRLSCAASGFSLTNYGVHWVRQAPGKGLEWLGVGWSGGNTDYNTPFTSRLTINKDNSKNTVYLQMNSLRAEDTAVYYCARALTWYDYEFAYWGQGTLVTVSSASTKGPEVQLVQSGGGLVKPGGSLRLSCAASGFTFSSYAMHWVRQAPGKGLEWVAVISYDGSNKYYADSVKGRFTISRDNSKNTLYLQMNSLRAEDTAVYYCARFSGWPNNYYYYGMDVWGQGTTVTVSS VL: DILLTQSPGTLSLSPGERATLSCRASQSIYTNIHWYQQKPGQAPRLLIKYASESISGIPDRFSGSGSGTDFTLTISRLEPEDFAVYYCQQNLNWPTTFGQGTKLEIKRTVAAPDVVMTQSPLSLPVTPGEPASISCRSSQSLLHSNGFNYVDWYLQKPGQSPHLLIYFGSYRASGVPDRFSGSGSGTDFTLKISRVEAEDVGVYYCMQALQTPPWTFGQGTKVEIR | –
24.1 | DVD2346 (bispecific antibody) VH: QVQLQESGPGLVKPSQTLSLTCTVSGYSISSDFAWNWIRQPPGKGLEWMGYISYSGNTRYQPSLKSRITISRDTSKNQFFLKLNSVTAADTATYYCVTAGRGFPYWGQGTLVTVSSASTKGPEVQLVQSGGGLVKPGGSLRLSCAASGFTFSSFAMHWVRQAPGKGLEWISVIDTRGATYYADSVKGRFTISRDNAKNSLYLQMNSLRAEDTAVYYCARLGNFYYGMDVWGQGTTVTVSS VL: DIQMTQSPSSMSVSVGDRVTITCHSSQDINSNIGWLQQKPGKSFKGLIYHGTNLDDGVPSRFSGSGSGTDYTLTISSLQPEDFATYYCVQYAQFPWTFGGGTKLEIKRTVAAPEIVLTQSPGTLSVSPGERATLSCRASQSIGSSLHWYQQKPGQAPRLLIKYASQSLSGIPDRFSGSGSGTDFTLTISRLEPEDFAVYYCHQSSRLPHTFGQGTKVEIK | –
